Publication PMC12691643
Several values for one entry are separate records, joined by “and”; a condition that tells them apart may be missing. Identical values can stand only once.

B1: Nostrin, endogenous in murine DC2.4 cells (natural protein)
chain: MRDPLTDCSYNKVYKSLKEFAQHGDNFCKQITSVLQQRANLEISYAKGLQKLAVRLSKALQSTKKNCLSTAWAWASESMKSAADLHQKLGKAIELEAIKPTHQVLSMQEKKRKSLDNEVEKTANLVINNWNQQIKAKKKLMMSTKKHEALFHLVESSKQSLTQKEKQKLLNKLKKSTEKLEKEDESYYQKNMAGYSTRLKWESTLENCYKSMLELEKERIQLLCNNLNQYSQHISLFGQTLTTCHTQIHCAISKVDVEKDIQALMEETAILSIENKSELLLADYFEEDPKNPMDKERRKSLLKPKLGRLQRDIEKASRDKEGLERKLKALASSSSFSDAKSQKDMETLMDENSLKLDLLQANSYKLSSVLADLEQRPKPCHPCSTCIFKWKEKEHSHTYVKISRPLLTKRLEKAESKAPAGGQNNPSSSPSGSTVSQASKHLCKALYTFQARQDDELNLEKGDIVTVHEKKEEGWWFGSLKGKRGHFPAAYVEELPPKAGNTATQA
B2: Git1, endogenous in murine DC2.4 cells (natural protein)
chain: MSRKGPRAEVCADCSAPDPGWASISRGVLVCDECCSVHRSLGRHISIVKHLRHSAWPPTLLQMVHTLASNGANSIWEHSLLDPAQVQSGRRKANPQDKVHPIKSEFIRAKYQMLAFVHKLPCRDDDGVTAKDLSKQLHSSVRTGNLETCLRLLSLGAQANFFHPEKGTTPLHVAAKAGQTLQAELLVVYGADPGSPDVNGRTPIDYARQAGHHELAERLVECQYELTDRLAFYLCGRKPDHKNGHYIIPQMADRSRQKCMSQSLDLSELAKAAKKKLQALSNRLFEELAMDVYDEVDRRENDAVWLATQNHSTLVTERSAVPFLPVNPEYSATRNQGRQKLARFNAREFATLIIDILSEAKRRQQGKSLSSPTDNLELSARSQSELDDQHDYDSVASDEDTDQEPLPSAGATRNNRARSMDSSDLSDGAVTLQEYLELKKALATSEAKVQQLMKVNSSLSDELRRLQREIHKLQAENLQLRQPPGPVPPPSLPSERAEHTLMGPGGSTHRRDRQAFSMYEPGSALKPFGGTPGDELATRLQPFHSTELEDDAIYSVHVPAGLYRIRKGVSASSVPFTPSSPLLSCSQEGSRHASKLSRHGSGADSDYENTQSGDPLLGLEGKRFLELSKEDELHPELESLDGDLDPGLPSTEDVILKTEQVTKNIQELLRAAQEFKHDSFVPCSEKIHLAVTEMASLFPKRPALEPVRSSLRLLNASAYRLQSECRKTVPPEPGAPVDFQLLTQQVIQCAYDIAKAAKQLVTITTREKKQ
B3: Arhgef7, endogenous in murine DC2.4 cells (natural protein)
chain: MNSAEQTVTWLITLGVLESPKKTISDPEVFLQASLKDGVVLCRLLERLLPGTIEKVYPEPRNESECLSNIREFLRACGASLRLETFDANDLYQGQNFNKVLSSLVTLNKVTADIGLGSDSVCARPSSHRIKSFDSLGSQSSHSRTSKLLQSQYRSLDMTDNTNSQLVVRAKFNFQQTNEDELSFSKGDVIHVTRVEEGGWWEGTHNGRTGWFPSNYVREIKPSEKPVSPKSGTLKSPPKGFDTTAINKSYYNVVLQNILETEHEYSKELQSVLSTYLRPLQTSDKLSSANTSYLMGNLEEISSFQQVLVQSLEECTKSPEAQQRVGGCFLSLMPQMRTLYLAYCANHPSAVSVLTEHSEDLGEFMETKGASSPGILVLTTGLSKPFMRLDKYPTLLKELERHMEDYHPDRQDIQKSMTAFKNLSAQCQEVRKRKELELQILTEPIRSWEGDDIKTLGSVTYMSQVTIQCAGSEEKNERYLLLFPNLLLMLSASPRMSGFIYQGKLPTTGMTITKLEDSENHRNAFEISGSMIERILVSCTSQQDLHEWVEHLQKQTKVTSVSNPTIKPHSVPSHTLPSHPLTPSSKHADSKPVALTPAYHTLPHPSHHGTPHTTISWGPLEPPKTPKPWSLSCLRPAPPLRPSAALCYKEDLSKSPKTMKKLLPKRKPERKPSDEEFAVRKSTAALEEDAQILKVIEAYCTSAKTRQTLNSTWQGTDLMHNHVLADDDQSSLDSLGRRSSLSRLEPSDLSEDSEYDSIWTAHSYRMGSASRSRKESAPQVLLPEEEKIIVEETKSNGQTVIEEKSLVDTVYALKDEVQELRQDNKKMKKSLEEEQRARKDLEKLVRKVLKNMNDPAWDETNL
B4: Git2, endogenous in murine DC2.4 cells (natural protein)
chain: MSKRLRSSDVCADCNGPDPSWASVNRGTFICDECCSVHRSLGRHISQVRHLKHTAWPPTLLQMVETLYNNGANSIWEHSLLDPASIMSGRRKANPQDKVHPNKAEFIRAKYQMLAFVHRLPCREDDSVTAKDLSKQLHSSVRTGNLETCLRLLSLGAQANFFHPEKGSTPLHVASKAGQILQAELLAVYGADPGTQDSSGKTPVDYARQGGHHELAERLIEIQYELTDRLAFYLCGRKPDHKSGQHFLIPQRADSLDLSELAKAAKKKLQSLSNHLFEELAMDVYDEVDRRETDAVWLATQNHSTLVTETTVVPFLPVNPEYSSTRNQGRQKLARFNAHEFATLVIDILSDAKRRQQGSPLSRSKDNVELILRTVSTQHSTESQDNDQPDYDSVASDEDTDVETRASKANRQKLQTLQSENSSLRRQATASACQVQTGSDHKDTASHSSLKRRPSARGSRPMSMYETGSGQKPYLPMGEASHPEESRTRLQPFPTHIGRSALVTSSSSLPSFPSTLSWSRDESARRASRLEKQNSTPESDYDNTACDPEPDDTGSTRKGRQRSMLWQGDGLLPDTAEPHSVPSPTLPSTEDVIRKTEQITKNIQELLRAAQENKHDSYIPCSERIHVAVTEMAALFPKKPKSDTVRTSLRLLTSSAYRLQSECRKALPGDSSLPTDVQLVTQQVIQCAYDIAKAAKQLVTITTKENSS
B5: Shp2 (Ptpn11), endogenous in murine DC2.4 cells (natural protein)
chain: MTSRRWFHPNITGVEAENLLLTRGVDGSFLARPSKSNPGDFTLSVRRNGAVTHIKIQNTGDYYDLYGGEKFATLAELVQYYMEHHGQLKEKNGDVIELKYPLNCADPTSERWFHGHLSGKEAEKLLTEKGKHGSFLVRESQSHPGDFVLSVRTGDDKGESNDGKSKVTHVMIRCQELKYDVGGGERFDSLTDLVEHYKKNPMVETLGTVLQLKQPLNTTRINAAEIESRVRELSKLAETTDKVKQGFWEEFETLQQQECKLLYSRKEGQRQENKNKNRYKNILPFDHTRVVLHDGDPNEPVSDYINANIIMPEFETKCNNSKPKKSYIATQGCLQNTVNDFWRMVFQENSRVIVMTTKEVERGKSKCVKYWPDEYALKEYGVMRVRNVKESAAHDYTLRELKLSKVGQGNTERTVWQYHFRTWPDHGVPSDPGGVLDFLEEVHHKQESIVDAGPVVVHCSAGIGRTGTFIVIDILIDIIREKGVDCDIDVPKTIQMVRSQRSGMVQTEAQYRFIYMAVQHYIETLQRRIEEEQKSKRKGHEYTNIKYSLVDQTSGDQSPLPPCTPTPPCAEMREDSARVYENVGLMQQQRSFR

Experiments:
Test in all cases: affinity purification with mass spectrometry; HA-tagged TgWIP variants pulled down by the HA tag from lysates of DC2.4 cells infected 4 h at MOI 7; host partners by mass spectrometry; values are negative fold changes in peptide counts of the mutant immunoprecipitations relative to TgWIP^WT
[1] = target: TgWIP^(PRR2 mut), HA-tagged (Toxoplasma gondii)
[2] = target: TgWIP^(PRR3 mut), HA-tagged (Toxoplasma gondii)
[3] = target: TgWIP^(WIRS mut), HA-tagged (Toxoplasma gondii)
[4] = target: TgWIP^Y150A/Y199A, HA-tagged (Toxoplasma gondii)

Molecule | negative fold change in peptide counts relative to TgWIP^WT [1] [fold] | negative fold change in peptide counts relative to TgWIP^WT [2] [fold] | negative fold change in peptide counts relative to TgWIP^WT [3] [fold] | negative fold change in peptide counts relative to TgWIP^WT [4]
Abi1, endogenous in murine DC2.4 cells (from UniProt Q8CBW3 1-481) (natural protein) | 4 | 6 | 4 | 2 fold
Wasf2 (Wave2), endogenous in murine DC2.4 cells (from UniProt Q8BH43 1-497) (natural protein) | 3 | 15 | 3 | 2 fold
Cyfip1, endogenous in murine DC2.4 cells (from UniProt Q7TMB8 1-1253) (natural protein) | 2 | 5 | 2 | 1 fold
Nck2, endogenous in murine DC2.4 cells (from UniProt O55033 1-380) (natural protein) | 1 | 3 | 1 | 1 fold
Lrrk1, endogenous in murine DC2.4 cells (from UniProt Q3UHC2 1-2014) (natural protein) | 3 | 3 | 1 | 1 fold
Pstpip1, endogenous in murine DC2.4 cells (from UniProt P97814 1-415) (natural protein) | 8 | 5 | 1 | 1 fold
Grb2, endogenous in murine DC2.4 cells (from UniProt Q60631 1-217) (natural protein) | 6 | 3 | 2 | 4 fold
Cyfip2, endogenous in murine DC2.4 cells (from UniProt Q5SQX6 1-1253) (natural protein) | 3 | 5 | 2 | 2 fold
Shp1 (Ptpn6), endogenous in murine DC2.4 cells (from UniProt P29351 1-595) (natural protein) | 3 | 3 | 2 | 32 fold
B1 | 6 | 5 | 3 | 1 fold
B2 | 4 | 11 | 2 | 2 fold
B3 | 4 | 8 | 2 | 3 fold and 2 fold
B4 | 2 | – | 2 | 3 fold
B5 | 3 | – | – | 39 fold
